Measurements as given in FireProtDB (doi:10.1016/0022-2836(92)90557-z).

Settings: Bacillus amyloliquefaciens; pH 6.3; 25 °C; Urea; Fluorescence; MES 1.00 M; NaCl 613 mM; reversible: yes; whole UniProt chain shown

B1: Ribonuclease wild type, P00648 (protein)
chain: MMKMEGIALKKRLSWISVCLLVLVSAAGMLFSTAAKTETSSHKAHTEAQVINTFDGVADYLQTYHKLPDNYITKSEAQALGWVASKGNLADVAPGKSIGGDIFSNREGKLPGKSGRTWREADINYTSGFRNSDRILYSSDWLIYKTTDHYQTFTKIR
  denaturant midpoint (higher = more stable): 4.58 M
